Measurements as given in PMC9638026, “DNA double-strand break-derived RNA drives TIRR/53BP1 complex dissociation”.

How the values were obtained:
[1] = target: TIRR (6-211)-His (UniProt Q9BRJ7 6-211); experiment: SPR; SPR: 20 mM HEPES pH 6, 300 mM NaCl, 0.05% P20, 25 C; EMSA: 50 mM HEPES, 50 mM NaCl, 5% glycerol, 20 mM MgCl2, 0.01% Tween 20, 37 C 15 min, 10 nM probe; conditions: protein: recombinant, tags: His
[2] = target: 53BP1-Tudor (Homo sapiens, UniProt Q12888 1484-1603); experiment: EMSA; 20 mM Mg2+; SPR: 20 mM HEPES pH 6, 300 mM NaCl, 0.05% P20, 25 C; EMSA: 50 mM HEPES, 50 mM NaCl, 5% glycerol, 20 mM MgCl2, 0.01% Tween 20, 37 C 15 min, 10 nM probe; conditions: protein: commercial; label: 32P 5' in EMSA; hairpin
Chain of 53BP1-Tudor (Q12888 1484-1603): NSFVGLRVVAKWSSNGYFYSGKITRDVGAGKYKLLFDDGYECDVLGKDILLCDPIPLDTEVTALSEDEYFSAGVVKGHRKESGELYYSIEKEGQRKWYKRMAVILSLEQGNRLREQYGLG

Chain of TIRR (6-211)-His (Q9BRJ7 6-211): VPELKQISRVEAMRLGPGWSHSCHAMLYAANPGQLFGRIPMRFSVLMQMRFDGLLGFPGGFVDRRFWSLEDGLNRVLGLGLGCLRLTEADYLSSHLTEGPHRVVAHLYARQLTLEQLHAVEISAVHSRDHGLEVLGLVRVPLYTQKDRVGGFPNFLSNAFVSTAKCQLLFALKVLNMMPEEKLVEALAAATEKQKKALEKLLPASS

CGCUCCCAAAAAAAAAAACCGAGCG (structured_RNA) [RNA beacon] was tested, and the Kd ([1]; label: 32P 5' in EMSA, hairpin) was ~100 µM and the binding result [2] was “no binding”.

In the case of GGACAAGAUGCCUUAUGUGGACUUCACCACAUAAGGCAUCUUGUCC (structured_RNA) [RNA hairpin], the Kd ([1]; hairpin) is reported as ~100 µM.

B1: dsRNA (dsRNA)
RNA 1: GGACAAGAUGCCUUAUGUGG
RNA 2: CCACAUAAGGCAUCUUGUCC
For B1, the Kd ([1]; blunt) was ~200 µM.
